Tests used:
[1] = K-562 cytotoxicity assay (MTT); format: cell-based, human; settings: human, K-562 cells, 100 uM, MTT absorbance
Method: (§1) The K-562 cell line (CRL-243, ATCC) has attained widespread use as a highly sensitive in vitro target for cytotoxicity assays. K-562 blasts are multipotential, hematopoietic malignant cells that spontaneously differentiate into recognizable progenitors of the erythrocytic, granulocytic and monocytic series (Lozzio, B B et al., Proc. Soc. Exp. Biol. Med. 166: 546-550, 1981).
(§2) K562 cells were plated at 5,000 cells/well in 96-well tissue culture clusters (Costar) in DMEM phenol-free growth medium (Life Technologies) supplemented with pyruvate and 10% serum (HyClone). Next day, human recombinant ZCYTO18 (Example 19), BSA control or retinoic acid (known to be cytotoxic to K562 cells) were added. Seventy-two hours later, the vital stain MTT (Sigma, St Louis, Mo.), a widely used indicator of mitochondrial activity and cell growth, was added to the cells at a final concentration of 0.5 mg/ml. MTT is converted to a purple formazan derivative by mitochondrial dehydrogenases. Four hours later, converted MTT was solubilized by adding an equal volume of acidic isopropanol (0.04N HCl in absolute isopropanol) to the wells. Absorbance was measured at 570 nm, with background subtraction at 650 nm. In this experimental setting, absorbance reflects cell viability. Results shown in Table 7 are expressed as % cytotoxicity.

[2] = tested on: BaF3/CRF2-4/zcytor11 cells; experiment: Alamar Blue proliferation assay, BaF3/CRF2-4/zcytor11 cells; format: cell-based, murine; settings: for proliferative response (in words): 0.06-50 ng/ml, media without IL-3
Method: BaF3/CRF2-4/zcytor11 cells were spun down and washed in the complete media, described in Example 21A above, but without mIL-3 (hereinafter referred to as “mIL-3 free media”). The cells were spun and washed 3 times to ensure the removal of the mIL-3. Cells were then counted in a hemacytometer. Cells were plated in a 96-well format at 5000 cells per well in a volume of 100 μl per well using the mIL-3 free media.
Proliferation of the BaF3/CRF2-4/zcytor11 cells was assessed using ZCYTO18-CEE protein diluted with mIL-3 free media to 50, 10, 2, 1, 0.5, 0.25, 0.13, 0.06 ng/ml concentrations. 100 μl of the diluted protein was added to the BaF3/CRF2-4/zcytor11 cells. The total assay volume is 200 μl. The assay plates were incubated at 37° C., 5% CO2 for 3 days at which time Alamar Blue (Accumed, Chicago, Ill.) was added at 20 μl/well. Plates were again incubated at 37° C., 5% CO2 for 24 hours. Alamar Blue gives a fluourometric readout based on number of live cells, and is thus a direct measurement of cell proliferation in comparison to a negative control. […]. Plates were read on the Finax™ plate reader (Molecular Devices Sunnyvale, Calif.) using the SoftMax™ Pro program, at wavelengths 544 (Excitation) and 590 (Emmission). […] The response, as measured, was approximately 15-fold over background at the high end of 50 ng/ml down to a 2-fold induction at the low end of 0.06 ng/ml.

[3] = tested on: K-562 cells; experiment: K-562 cytotoxicity assay (MTT); format: cell-based, human; settings: 72 hours, MTT absorbance
Method: as §1, §2

[4] = molecular target: T1, ZCYTO18 (Homo sapiens, UniProt Q9GZX6); settings: commonly owned PCT/US00/32703; cited from earlier work
T1 sequence (Q9GZX6 34-179): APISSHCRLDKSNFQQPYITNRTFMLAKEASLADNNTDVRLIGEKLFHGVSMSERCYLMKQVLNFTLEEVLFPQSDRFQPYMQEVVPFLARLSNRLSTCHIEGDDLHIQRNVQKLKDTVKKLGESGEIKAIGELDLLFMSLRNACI

[5] = tested on: BaF3/CRF2-4 cells; experiment: Alamar Blue proliferation assay, BaF3/CRF2-4 cells; format: cell-based, murine; settings: mIL-3 free media
Method: BaF3, an interleukin-3 (IL-3) dependent pre-lymphoid cell line derived from murine bone marrow (Palacios and Steinmetz, Cell 41: 727-734, 1985; Mathey-Prevot et al., Mol. Cell. Biol. 6: 4133-4135, 1986), was maintained in complete media (RPMI medium (JRH Bioscience Inc., Lenexa, Kans.) supplemented with 10% heat-inactivated fetal calf serum, 2 ng/ml murine IL-3 (mIL-3) (R & D, Minneapolis, Minn.), 2 mM L-glutaMax-1™ (Gibco BRL), 1 mM Sodium Pyruvate (Gibco BRL), and PSN antibiotics (GIBCO BRL)). Prior to electroporation, CRF2-4/pZP7P was prepared and purified using a Qiagen Maxi Prep kit (Qiagen) as per manufacturer's instructions. […]
BaF3/CRF2-4/zcytor11 cells were spun down and washed in the complete media, described in Example 21A above, but without mIL-3 (hereinafter referred to as “mIL-3 free media”). […] Cells were then counted in a hemacytometer. […]
Proliferation of the BaF3/CRF2-4/zcytor11 cells was assessed using ZCYTO18-CEE protein diluted with mIL-3 free media to 50, 10, 2, 1, 0.5, 0.25, 0.13, 0.06 ng/ml concentrations. […] Alamar Blue gives a fluourometric readout based on number of live cells, and is thus a direct measurement of cell proliferation in comparison to a negative control. […] Plates were read on the Finax™ plate reader (Molecular Devices Sunnyvale, Calif.) using the SoftMax™ Pro program, at wavelengths 544 (Excitation) and 590 (Emmission). […]

[6] = tested on: BaF3 wild type cells; experiment: Alamar Blue proliferation assay, BaF3 wild type cells; format: cell-based, murine; settings: mIL-3 free media

In the case of `CC1=C(/C=C/C(C)=C/C=C/C(C)=C/C(=O)O)C(C)(C)CCC1` [Retinoic acid, reference compound], the cytotoxicity at 72 h, 100 µM [1] is reported as 62%.

B1: ZCYTO18: novel four-helical-bundle cytokine polypeptide, SEQ ID NO:3; annotated in the literature as IL-TIF (protein, listed as Homo sapiens)
chain: MGTLATSCLLLLALLVQGGAAAPISSHCRLDKSNFQQPYITNRTFMLAKEASLADNNTDVRLIGEKLFHGVSMSERCYLMKQVLNFTLEEVLFPQSDRFQPYMQEVVPFLARLSNRLSTCHIEGDDLHIQRNVQKLKDTVKKLGESGEIKAIGELDLLFMSLRNACI
In the case of B1, the “proliferative response (in words)” value [2] is reported as “dose-dependent proliferative response”, the “% Cytotoxicity” value ([3]; 100 ng/ml) is reported as 16.2% and the “% Cytotoxicity” value ([3]; 300 ng/ml) is reported as 32%.

B2: zcytor16: naturally-expressed soluble receptor antagonist of ZCYTO18 (SEQ ID NO:32, SEQ ID NO:33) (protein, listed as Homo sapiens)
chain: MMPKHCFLGFLISFFLTGVAGTQSTHESLKPQRVQFQSRNFHNILQWQPGRALTGNSSVYFVQYKIYGQRQWKNKEDCWGTQELSCDLTSETSDIQEPYYGRVRAASAGSYSEWSMTPRFTPWWETKIDPPVMNITQVNGSLLVILHAPNLPYRYQKEKNVSIEDYYELLYRVFIINNSLEKEQKVYEGAHRAVEIEALTPHSSYCVVAEIYQPMLDRRSQRSEERCVEIP
In the case of B2, the “binding of ZCYTO18 and antagonism of its activity” value [4] is listed as “bind ZCYTO18 and antagonize its activity”.

B3: ZCYTO18-CEE: ZCYTO18 polypeptide containing C-terminal GluGlu (EE) tag (SEQ ID NO:14), purified from BHK 570 or Sf9 cells (protein)
chain: APISSHCRLDKSNFQQPYITNRTFMLAKEASLADNNTDVRLIGEKLFHGVSMSERCYLMKQVLNFTLEEVLFPQSDRFQPYMQEVVPFLARLSNRLSTCHIEGDDLHIQRNVQKLKDTVKKLGESGEIKAIGELDLLFMSLRNACIEYMPME
With B3 the “proliferation in response to ZCYTO18-CEE” value [5] was “did not proliferate”, the “proliferative response over background” value ([2]; 50 ng/ml, mIL-3 free media, 3 days then Alamar Blue) was “approximately 15 fold” and the “proliferative response (in words)” value [2] was “dose-dependent proliferative response”. The “proliferation in response to ZCYTO18-CEE” value [6] was “did not proliferate”.
